B1: recombinant human TREM2 protein (Sino Biological, 11084-H08H) (receptor, UniProt Q9NZC2 19-174, looked up)
chain: HNTTVFQGVAGQSLQVSCPYDSMKHWGRRKAWCRQLGEKGPCQRVVSTHNLWLLSFLRRWNGSTAITDDTLGGTLTITLRNLQPHDAGLYQCQSLHGSEADTLRKVLVEVLADPLDHRDAGDLWFPGESESFEDAHVEHSISRSLLEGEIPFPPTS
notes: Detected with anti-6x His tag antibody, so His-tagged; tag not described
B2: TB006 (antibody, V domains shown)
VH: QVQLVQSGAEVKKPGASVKVSCKASGYSFTNYYMHWVRQAPGQRLEWMGWIYPGSGNTNYNEKFQGRVTITADTSASTAYMELSSLRSEDTAVYYCSTAPGGFDVWGQGTTVTVSS
VL: DIVMTQTPLSLSVTPGQPASISCKSSKSLLHSDGITYLYWYLQKPGQSPQLLIYRMSNLASGVPDRFSGSGSGTDFTLKISRVEAEDVGVYYCAQMLEFPLTFGQGTKLEIKR
notes: Humanized variant derived from murine 4A11.2B5; also called 4A11.H3L1; IMT006
B3: recombinant human TNF sRI (R&D Systems, 372-RI/CF) (receptor, UniProt P19438 30-211, looked up)
chain: LVPHLGDREKRDSVCPQGKYIHPQNNSICCTKCHKGTYLYNDCPGPGQDTDCRECESGSFTASENHLRHCLSCSKCRKEMGQVEISSCTVDRDTVCGCRKNQYRHYWSENLFQCFNCSLCLNGTVHLSCQEKQNTVCTCHAGFFLRENECVSCSNCKKSLECTKLCLPQIENVKGTEDSGTT
notes: Detected with anti-human IgG
B4: TB001 (antibody, IgG4, V domains shown)
VH: QVQLVQSGSELKKPGASVKVSCKASGYTFTNYGMNWVRQAPGQGLKWMGWINTNTGEPTYVEEFTGRFVFSLETSVSTAYLQISSLKAEDTAVYFCAPYDNFFAYWGQGTTVTVSS
VL: DIVLTQSPLSLPVTPGEPASISCRSSKSLLYKDGKTYLNWFLQKPGQSPQLLIYLMSTHASGVPDRFSGSGSGTDFTLKISRVEAEDVGVYYCQQLVDYPLTFGGGTKLEIKR
notes: also called IMT001; IMT001-4
B5: 13G4.2F8 (antibody, human IgG4 S228P, kappa, V domains shown)
VH: QVQLQQPGAELVKPGASVKLSCKASGYTFTSYWMHWVKQRPGQGLEWIGMIHPNSGSTDYNEKFKNKATLNVDKSSSTAYIQLSSLTSEDSAVYYCTRWGIYYYARDYWGQGTTLTVSS
VL: DIVMTQSQKFMSTSVGERVSITCKASQNVGTNVAWYQQKAGQSLELLIYGASNRHTGVPDRFTGSGSGTDFTLTITNVQSEDMTNYFCEQYSNFPLTFGAGTKLELKR
B6: 6H6.2D6 (antibody, human IgG4 S228P, kappa, V domains shown)
VH: QIQLVQSGPELKKPGETVKISCKASGYTFTTYGMSWVKQAPGKGLKWMAWINTYSGVPTYADDFKGRFAFSLETSASTAYLQINNLTNEDTATYFCARGPYAMDYWGQGTSVTVSS
VL: DIQMTQTTSSLSASLGDRVTISCSASQGISNYLNWYQQKPDGTVKLLIYYTSSLHSGVPSRFSGSGSGTDYSLTISNLEPEDIATYYCQQYSELPYTFGSGTKLEIKR

Assays:
[1] = target: T1, human Galectin-3 (Gal3), full-length recombinant (human, UniProt P17931 2-250); experiment: ELISA: Gal3 coated, His-tagged TREM2 detected with anti-6xHis-HRP; concentrations of the bars not printed on the sheet
T1 construct: treated here as one molecule; also called hGAL3; hGal3

[2] = target: T1, human Galectin-3 (Gal3), full-length …; experiment: not stated (FIG. 50)
mouse Gal3 = mouse Gal3 (mouse, UniProt P16110 2-264, limits assumed); experiment: not stated (FIG. 50)
[3] = target: T1, human Galectin-3 (Gal3), full-length …; experiment: cell-based or functional assay
[4] = target: T1, human Galectin-3 (Gal3), full-length …; experiment: blocking ELISA, Gal3 coated, TREM2-His
[5] = target: T1, human Galectin-3 (Gal3), full-length …; experiment: blocking ELISA, Gal3 coated, biotin-TLR4
[6] = target: T1, human Galectin-3 (Gal3), full-length …; experiment: blocking ELISA, Gal3 coated, biotin-APP695
[7] = target: T1, human Galectin-3 (Gal3), full-length …; experiment: blocking ELISA, Gal3 coated, biotin-TGFβR2
[8] = target: T1, human Galectin-3 (Gal3), full-length …; experiment: blocking ELISA, Gal3 coated, biotin-Tau aggregates
[9] = target: T1, human Galectin-3 (Gal3), full-length …; experiment: blocking ELISA, Gal3 coated, biotin-Abeta42 peptide
[10] = target: T1, human Galectin-3 (Gal3), full-length …; experiment: blocking ELISA, Gal3 coated, biotin-Abeta42 oligomer
[11] = target: T1, human Galectin-3 (Gal3), full-length …; experiment: ELISA: Gal3 coated at 2 or 3 µg/ml, protein at 2 or 3 µg/ml, anti-human IgG-HRP, A450
[12] = target: T1, human Galectin-3 (Gal3), full-length …; experiment: titration of the antibody on a panel of galectins, read as OD450; set-up not given, species of the galectins not given
[13] = target: T1, human Galectin-3 (Gal3), full-length …; experiment: blocking ELISA, Gal3 coated, EGFR-Fc, antibody 20 µg/ml
[14] = target: T1, human Galectin-3 (Gal3), full-length …; experiment: blocking ELISA, Gal3 coated, VEGFR3-Fc, antibody 20 µg/ml
[15] = target: T1, human Galectin-3 (Gal3), full-length …; experiment: blocking ELISA, Gal3 coated, biotin-α-synuclein aggregates
[16] = target: T1, human Galectin-3 (Gal3), full-length …; experiment: blocking ELISA, Gal3 coated, PDGFR beta-Fc, antibody 20 µg/ml
[17] = target: T1, human Galectin-3 (Gal3), full-length …; experiment: blocking ELISA, Gal3 coated, PDGFR alpha-Fc, antibody 20 µg/ml
[18] = target: T1, human Galectin-3 (Gal3), full-length …; experiment: Gator biosensor kinetics, antibody loaded on probe, rhGal3-His in solution, 1:1 fit
[19] = target: T1, human Galectin-3 (Gal3), full-length …; experiment: Gator biosensor kinetics (legend: SPR), 6H6 mIgG2a loaded on probes, rhGalectin-3 as analyte, 1:1 fit

T1 sequence (P17931 2-250 limits assumed): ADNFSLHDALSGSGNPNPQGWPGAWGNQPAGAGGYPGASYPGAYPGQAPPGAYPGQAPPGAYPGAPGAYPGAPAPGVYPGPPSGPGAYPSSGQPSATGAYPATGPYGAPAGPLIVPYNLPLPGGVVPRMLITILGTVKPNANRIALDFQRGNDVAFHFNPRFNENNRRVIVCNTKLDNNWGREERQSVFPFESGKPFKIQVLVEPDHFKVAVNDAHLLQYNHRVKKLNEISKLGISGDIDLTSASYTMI
mouse Gal3, sequence (P16110 2-264 limits assumed): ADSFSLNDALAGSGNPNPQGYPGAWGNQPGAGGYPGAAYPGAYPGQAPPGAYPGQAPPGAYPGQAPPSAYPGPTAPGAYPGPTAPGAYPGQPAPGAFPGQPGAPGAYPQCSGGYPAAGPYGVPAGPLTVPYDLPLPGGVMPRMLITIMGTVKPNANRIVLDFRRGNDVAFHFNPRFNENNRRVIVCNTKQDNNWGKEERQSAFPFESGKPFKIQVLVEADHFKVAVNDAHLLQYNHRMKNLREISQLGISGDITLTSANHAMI

Binder	Kd [2]	Kd (mouse Gal3)	IC50 of TGF-β-induced pro-collagen production in LX-2 cells [3]	% blocking of Gal3-TREM2 binding [4]	% blocking of Gal3-TLR4 binding [5]	% blocking of Gal3-APP695 binding [6]	IC50 [7]	% blocking of Gal3-Tau aggregates binding [8]	% blocking of Gal3-Abeta42 peptide binding [9]	% blocking of Gal3-Abeta42 oligomer binding [10]	IC50 [10]	% blocking of Gal3-EGFR binding [13]	% blocking of Gal3-VEGFR3 binding [14]	% blocking of Gal3-PDGFR beta binding [16]	% blocking of Gal3-PDGFR alpha binding [17]	also measured
B1	–	–	–	–	–	–	–	–	–	–	–	–	–	–	–	binding result [1]: binds
B2	8.9 nM	40000 nM	0.23 µg/mL	> 90%	> 90%	> 90%	11.5 nM	> 90%	> 90%	> 90%	2.38 nM	–	–	–	–	–
B3	–	–	–	–	–	–	–	–	–	–	–	–	–	–	–	binding result [11]: binds
B4	3.6 nM	2.3 nM	0.25 µg/mL	> 90%	> 90%	> 90%	12.8 nM	–	> 90%	> 90%	3.17 nM	–	–	–	–	EC50 (read off the curve) [12]: ~0.007 µg/mL
B5	–	–	–	–	–	–	–	< 50%	–	–	–	< 30%	< 30%	< 30%	< 30%	% blocking of Gal3-α-synuclein aggregates binding [15]: < 50%
B6	–	–	–	–	–	–	–	–	–	–	–	> 70%	> 70%	> 70%	> 70%	Kd [18]: 3.39 nM; koff [19]: 0.000299 s⁻¹; kon [19]: 88000 M⁻¹ s⁻¹

From patent publication US20250145722A1 (TRUEBINDING, published 2025)
